According to patent publication US20230277632A1, “MODIFIED PlySs2 LYSINS AND ANTIBIOTIC COMBINATIONS FOR USE AGAINST GRAM-POSITIVE BACTERIA” (ContraFect Corporation, priority 2020, published 2023):
Where two headings read alike, the source gives them in different places.

Columns and labels:
MSSA strains = test: Checkerboard assay: pp296 or CF-301 with oxacillin; type: cell-based, Staphylococcus aureus; conditions: for FIC: pp296 + oxacillin; for ΣFICmin: with oxacillin
From the text: In some embodiments, the present modified lysin polypeptides reduce the minimum inhibitory concentration (MIC) of an antibiotic. Any known method to assess MIC may be used. In some embodiments, a checkerboard assay is used to determine the effect of a lysin on antibiotic concentration. The checkerboard assay is based on a modification of the CLSI method for MIC determination by broth microdilution (See Clinical and Laboratory Standards Institute (CLSI), CLSI. 2015. Methods for Dilution Antimicrobial Susceptibility Tests for Bacteria That Grow Aerobically; Approved Standard-10th Edition. Clinical and Laboratory Standards Institute, Wayne, Pa., which is herein incorporated by reference in its entirety and Ceri et al. 1999. J. Clin. Microbiol. 37: 1771-1776, which is also herein incorporated by reference in its entirety).
Checkerboards are constructed by first preparing columns of e.g., a 96-well polypropylene microtiter plate, wherein each well has the same amount of antibiotic diluted 2-fold along the horizontal axis. […] The lysin and antibiotic dilutions are then combined, so that each column has a constant amount of antibiotic and doubling dilutions of lysin, while each row has a constant amount of lysin and doubling dilutions of antibiotic. Each well thus has a unique combination of lysin and antibiotic. Bacteria are added to the drug combinations at a given concentration. […] Summation fractional inhibitory concentrations (ΣFICs) are calculated for each drug and the minimum ΣFIC value (ΣFICmin) is used to determine the effect of the lysin/antibiotic combination.
The ability of CF-301 or a modified lysin polypeptide pp296 to synergize with oxacillin was assessed using a checkerboard analysis. For the checkerboard assay, a total of 50 μl of Mueller-Hinton broth is distributed into each well of microdilution plates. Then, a first antibiotic of a combination is serially diluted along the ordinate, while a second drug is diluted along the abscissa. An inoculum equal to a 0.5 McFarland turbidity standard is prepared from each bacterial isolate in Mueller-Hinton broth. Each microtiter well is then inoculated with 100 μl of a bacterial inoculum of 5×10^5 CFU/ml, and the plates are incubated at 37° C. for 18 h under aerobic conditions. The resulting checkerboard contains each combination of two antibiotics, with wells that contain the highest concentration of each antibiotic at opposite corners. […] To quantify the interactions between the antibiotics being tested, the FIC index (the combination of antibiotics that produced the greatest change from the individual antibiotic's MIC) value is calculated for each strain and antibiotic combination as follows:
(A/MICA)+(B/MICB)=FICA+FICB=FIC index,
where A and B are the MIC of each agent in combination in a single well, and MICA and MICB are the MIC of each drug when used individually. The combination is considered strongly synergistic when the FIC index is ≤0.5 and synergistic when the FIC index is >0.5-<1.

S. aureus isolates = test: In vivo efficacy of daptomycin in combination with pp296, neutropenic murine thigh infection model; conditions: 24 h
Protocol: Study animals: Specific pathogen-free female ICR mice (average body weight 23 grams) were provided food and water ad libitum and maintained and used in accordance with National Research Council recommendations. Animals were allowed a 48-hour post-delivery acclimation period before every experiment. Mice were rendered transiently neutropenic by injection of cyclophosphamide via intraperitoneal (IP) route at a dose of 150 mg/kg of body weight at four days before bacterial inoculation and 100 mg/kg of body weight at one day before bacterial inoculation.
Neutropenic Thigh Infection Model: Two transfers of the bacterial isolates were performed onto trypticase soy agar plates with 5% sheep blood and placed into an incubator at 37° C. for approximately 24 hours. After an 18-24 hour incubation of the second transfer, a suspension of approximately 10^7 CFU/mL was made for inoculation. Final bacterial inoculum concentrations were confirmed by serial dilution and plating techniques. Thigh infection with the test isolate was produced by intramuscular injection of 0.1 mL of the bacterial inoculum into each thigh of the mice. Antimicrobial therapy was initiated 2 hours after bacterial inoculation, as detailed below.
Untreated control mice (n=3) were sacrificed just prior to antibiotic administration and 24 hours after bacterial inoculation. Animals sacrificed prior to antibiotic initiation served as 0-hour control animals, representing initial bacterial burden. […] Treatment mice (n=3/group) were sacrificed at the end of the 24 hour treatment period. After sacrifice, both thighs for each mouse were homogenized in normal saline. Serial dilutions were plated on Trypticase soy agar with 5% sheep blood and incubated for 18 to 20 hours at 37.0 to determine the CFU. Efficacy was calculated as the change in bacterial density obtained in treated mice after 24 hours compared with the numbers in the 0-hour control animals. Bacterial density represents the average CFU determined from 3 mice, each contributing 2 thighs.
For the 4 S. aureus isolates HPV107, CAIRD426, JMI227, and NRS123, the following sub-therapeutic daptomycin dosage regimen was adopted: 0.76 mg/kg at 0 hrs, 0.4 mg/kg at 4 hrs, 0.24 mg/kg at 10 hrs, and 0.12 mg/kg at 17 hrs.

[1] = tested on: 5 MSSA and 5 MRSA isolates; conditions: cited from earlier work

B1: pp296: modified PlySs2 lysin, SEQ ID NO: 6: L92W, V104S, V128T, Y137S, Y164K, N184D, S198Q (protein)
chain: MTTVNEALNNVRAQVGSGVSVGNGECYALASWYERMISPDATVGLGAGVGWVSGAIGDTISAKNIGSSYNWQANGWTVSTSGPFKAGQIVTWGATPGNPYGHVSIVEAVDGDRLTILEQNYGGKRYPTRNYYSAASSRQQVVHYITPPGTVAQSAPNLAGSRSKRETGTMTVTVDALNVRRAPDTSGEIVAVYKRGEQFDYDTAIIDVNGYAWVSYIGGSGKRNYVATGATKDGKRFGNAWGTFK
With B1 the “Single agent MICs” value (MSSA strains; MSSA ATCC 29213) was 1 µg/mL, the “Single agent MICs” value (MSSA strains; MSSA JMI-6625) was 1 µg/mL and the “Single agent MICs” value (MSSA strains; MSSA JMI-6885) was 1 µg/mL. For the same molecule, the “Single agent MICs” value (MSSA strains; MSSA JMI-6886) was 1 µg/mL, the “Single agent MICs” value (MSSA strains; MSSA JMI-7054) was 1 µg/mL and the “Single agent MICs” value (MSSA strains; MSSA JMI-7160) was 1 µg/mL. The “Single agent MICs” value (MSSA strains; MSSA JMI-38739) was 1 µg/mL, the “Single agent MICs” value (MSSA strains; MSSA JMI-38986) was 1 µg/mL and the “Single agent MICs” value (MSSA strains; MSSA JMI-40671) was 1 µg/mL. The “Single agent MICs” value (MSSA strains; MSSA JMI-46142) was 1 µg/mL, the FIC (MSSA strains; MSSA ATCC 29213) was 0.25 and the FIC (MSSA strains; MSSA JMI-6625) was 0.0625. For the same molecule, the FIC (MSSA strains; MSSA JMI-6885) was 0.25, the FIC (MSSA strains; MSSA JMI-6886) was 0.25 and the FIC (MSSA strains; MSSA JMI-7054) was 0.25. For the same molecule, the FIC (MSSA strains; MSSA JMI-7160) was 0.25, the FIC (MSSA strains; MSSA JMI-38739) was 0.25 and the FIC (MSSA strains; MSSA JMI-38986) was 0.125. For the same molecule, the FIC (MSSA strains; MSSA JMI-40671) was 0.25, the FIC (MSSA strains; MSSA JMI-46142) was 0.25 and the ΣFICmin (MSSA strains; MSSA ATCC 29213) was 0.5. The ΣFICmin (MSSA strains; MSSA JMI-6625) was 0.3125, the ΣFICmin (MSSA strains; MSSA JMI-6885) was 0.375 and the ΣFICmin (MSSA strains; MSSA JMI-6886) was 0.5. The ΣFICmin (MSSA strains; MSSA JMI-7054) was 0.5, the ΣFICmin (MSSA strains; MSSA JMI-7160) was 0.5 and the ΣFICmin (MSSA strains; MSSA JMI-38739) was 0.5. It also gave a ΣFICmin (MSSA strains; MSSA JMI-38986) of 0.375, a ΣFICmin (MSSA strains; MSSA JMI-40671) of 0.375 and a ΣFICmin (MSSA strains; MSSA JMI-46142) of 0.5. The “mean bacterial density vs starting inoculum” value (S. aureus isolates; pp296 0.5 mg/kg IV + sub-therapeutic daptomycin) was 0.80±1.19 log10 CFU/thigh, the “mean bacterial density vs starting inoculum” value (S. aureus isolates; pp296 50 mg/kg IV + sub-therapeutic daptomycin) was −0.72±0.59 log10 CFU/thigh and the “average growth vs starting inoculum” value (S. aureus isolates; pp296 50 mg/kg alone, 8 isolates (daptomycin study)) was 1.36±1.35 log10 CFU/thigh. The FIC index ([1]; with daptomycin) was roughly 0.5 and the FIC index ([1]; with vancomycin) was roughly 0.5.
